{"source": "patent US7456007B1", "about": "“β-secretase enzyme compositions and methods” (Elan Pharmaceuticals, Inc., priority 1998, dated 2008)", "target": "β-secretase (Homo sapiens, UniProt P56817)", "sequence (P56817 46-501)": "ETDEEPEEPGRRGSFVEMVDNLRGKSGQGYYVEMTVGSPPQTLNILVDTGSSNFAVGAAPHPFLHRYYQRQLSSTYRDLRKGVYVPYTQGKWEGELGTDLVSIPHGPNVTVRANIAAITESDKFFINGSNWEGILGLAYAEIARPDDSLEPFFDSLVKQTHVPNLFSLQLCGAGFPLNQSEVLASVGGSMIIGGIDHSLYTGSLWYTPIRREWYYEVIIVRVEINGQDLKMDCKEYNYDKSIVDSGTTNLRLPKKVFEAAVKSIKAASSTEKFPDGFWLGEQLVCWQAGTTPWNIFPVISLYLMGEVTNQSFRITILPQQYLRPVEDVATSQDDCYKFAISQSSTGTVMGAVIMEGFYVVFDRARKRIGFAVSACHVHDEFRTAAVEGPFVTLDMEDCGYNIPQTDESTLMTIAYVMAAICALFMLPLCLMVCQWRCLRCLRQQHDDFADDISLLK", "assay": "β-secretase inhibition, assay not specified", "type": "biochemical", "note": "[ ]: non-standard residue; d: D form. Sta = CC(C)C[C@H](N)[C@@H](O)CC(=O)O"}
{"substance": "NH2-KTEEISEVN[sta]VAEF-COOH (H-KTEEISEVN[Sta]VAEF-OH) [P10-P4′staD→V]", "values": [{"measurement": "inhibitor of the enzyme (in words)", "result": "reasonably potent inhibitor"}]}
